Test results published in article PMC4856396, “The Staphylococcus aureus Global Regulator MgrA Modulates Clumping and Virulence by Controlling Surface Protein Expression”.

T1: MgrA (Staphylococcus aureus LAC, UniProt P0C1S0 1-147)
T1 sequence: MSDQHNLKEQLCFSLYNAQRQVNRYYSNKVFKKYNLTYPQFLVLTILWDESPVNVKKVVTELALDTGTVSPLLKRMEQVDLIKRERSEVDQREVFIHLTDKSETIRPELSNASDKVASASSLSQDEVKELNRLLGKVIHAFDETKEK


Assays:
MgrA [1] = molecular target: T1, MgrA; test: competition; 10-fold excess over labeled Pebh; settings: protein: recombinant; tags: His6-MBP removed by Tev cleavage (untagged; possible linker residues); chain copies: 2; blunt
MgrA [2] = molecular target: T1, MgrA; test: competition; 10-fold excess over labeled sraP P2 probe; settings: protein: recombinant; tags: His6-MBP removed by Tev cleavage (untagged; possible linker residues); chain copies: 2; blunt
MgrA [3] = molecular target: T1, MgrA; test: EMSA; 0-2 uM MgrA, 50 nM probe; dose-dependent; settings: protein: recombinant; tags: His6-MBP removed by Tev cleavage (untagged; possible linker residues); chain copies: 2; label: IRDye 700 on HC346; blunt
MgrA [4] = molecular target: T1, MgrA; test: EMSA; 0-2 uM MgrA, 50 nM probe; settings: protein: recombinant; tags: His6-MBP removed by Tev cleavage (untagged; possible linker residues); chain copies: 2; label: IRDye 700 at one end (HC487); blunt

Row | Binder | binding result (MgrA [1]) | binding result (MgrA [2]) | also measured
1 | non-specific competitor NSP (sraP probe 6) (dsDNA) DNA 1: CTGGAAAAAATTGGGTAAAATCCGGAATTAAAGAAATAGAAATGTTCAAA DNA 2: TTTGAACATTTCTATTTCTTTAATTCCGGATTTTACCCAATTTTTTCCAG | no binding | – | –
2 | sraP mutated competitor MP (sraP probe5 mut) (dsDNA) DNA 1: TTTGTAGATGTCAAGCACCTCATTAAATTGAATAGTGGCATATATTATAA DNA 2: TTATAATATATGCCACTATTCAATTTAATGAGGTGCTTGACATCTACAAA | – | no binding | –
3 | sraP P2 probe (sraP probe5) (dsDNA) DNA 1: TTTGTATCAAAAAAGAGTTGTATTAAATTGAATAGTGGCATATATTATAA DNA 2: TTATAATATATGCCACTATTCAATTTAATACAACTCTTTTTTGATACAAA | – | – | binding result (MgrA [3]): binds
4 | sraP specific competitor SP (dsDNA) DNA 1: TTTGTATCAAAAAAGAGTTGTATTAAATTGAATAGTGGCATATATTATAA DNA 2: TTATAATATATGCCACTATTCAATTTAATACAACTCTTTTTTGATACAAA | – | binds | –
5 | Pebh probe (ebh probe2) (dsDNA) DNA 1: GAGCATAAATAAATTGTTCAACACATAGTTGTAATGTGTTTCAATACTTT DNA 2: AAAGTATTGAAACACATTACAACTATGTGTTGAACAATTTATTTATGCTC | – | – | binding result (MgrA [4]): binds
6 | ebh specific competitor SP (dsDNA) DNA 1: GAGCATAAATAAATTGTTCAACACATAGTTGTAATGTGTTTCAATACTTT DNA 2: AAAGTATTGAAACACATTACAACTATGTGTTGAACAATTTATTTATGCTC | binds | – | –
